Reference: patent US20130022611A1, “METHODS AND COMPOSITIONS FOR MODULATING HEPSIN ACTIVATION OF UROKINASE-TYPE PLASMINOGEN ACTIVATOR” (Genentech, Inc., priority 2006, published 2013)

Columns and labels:
pro-tPA = target: T1, pro-tPA (Homo sapiens, UniProt P00750); assay: Pro-tPA cleavage analysed by SDS-PAGE; type: biochemical; conditions: 1.5 μM pro-tPA, 15 nM enzyme, 10 and 60 min
T1 construct: purchased Biodesign International (Saco, Me.)
Experimental: Pro-uPA at a concentration of 1.5 μM was incubated with 15 nM hepsin or 15 nM plasmin in Hepes buffer at room temperature. […] The samples were analyzed by SDS-PAGE using a 4-20% gradient gel (Invitrogen; Carlsbad, Calif.). Protein was visualized after staining with SimplyBlue Safe Stain (Invitrogen). Experiments with pro-tPA (1.5 μM) were carried out identically, except that the buffer used was 50 mM sodium phosphate pH 7.5, 200 mM arginine, 0.01% Tween-20.

pro-uPA = target: T2, pro-uPA (Homo sapiens, UniProt P00749); assay: First-order kinetics of pro-uPA activation by serine proteases; type: biochemical; conditions: for Added pro-uPA converted during the experiment / First-order rate constant k ± SD: 30 nM pro-uPA, 3 nM enzyme; for First-order rate constant k ± SD: room temperature, 5 experiments; for Efficiency of pro-uPA activation compared to matriptase: kcat/Km ratio
T2 construct: time-dependent cleavage of the single-chain form into the two-chain form; purchased Cortex Biochem (San Leandro, Calif.)
Experimental: The Km and kcat values for pro-uPA activation could not be accurately determined because the pro-uPA stock solution from the supplier (0.8 mg/ml) was not sufficiently high. Therefore, we chose to determine the first-order rate constant k as a measure of pro-uPA conversion efficiency. It was ensured that the pro-uPA concentration used (30 nM) was in the range of first-order kinetics for the enzymes tested, i.e. hepsin, plasmin and matriptase. The rate of uPA formation by these enzymes was linear up to 200 nM of pro-uPA. Pro-uPA (30 nM) was added to the enzymes (3 nM) in Hepes buffer to start the reaction at room temperature. At various time points, 50-μl aliquots were removed and added to 150 μl of 667 nM HAI-2 (final concentration in 250 μl was 400 nM) in Hepes buffer to stop further pro-uPA cleavage. […] Our results on HAI-2 inhibition of plasmin and HGFA (data not shown) were consistent with the published data (26,27). After addition of 50 μl of 2.5 mM S2444, the increase in absorbance at 405 nm was measured on a kinetic microplate reader. The concentration of uPA in each aliquot was calculated from a standard curve of enzymatically converted pro-uPA. The data were expressed as the decrease in the concentration of pro-uPA (log [pro-uPA]) as function of time. The first-order rate constant k was calculated from the slope using the equation
log [S]=−(k/2.3)t+log [S]0
where [S] is the concentration of pro-uPA and [S]0 is the initial pro-uPA concentration. The catalytic efficiency, kcat/Km, was then calculated using the known enzyme concentration [E] and the relationship k=(kcat/Km)[E]. The values are the average of 5 experiments±SD.

[1] = test system: LnCaP-34 cells (hepsin-overexpressing); assay: Pro-uPA conversion by LnCaP-34 cells, immunoblotting; type: cell-based, human; conditions: LnCaP-34, 30 nM pro-uPA, 1 h, 3 h, 5 h, 37° C.
Experimental: For immunoblotting experiments, confluent LnCaP-34 cell layers were washed as above and incubated with 30 nM pro-uPA at 37° C. After 1 hr, 3 hr and 5 hr, aliquots were taken and immediately added to SDS sample buffer. The proteins were separated by SDS-PAGE and transferred onto nitrocellulose filters using the Bio-Rad Semi Dry Transfer system. Pro-uPA and uPA were visualized by using a rabbit polyclonal anti-uPA antibody (Cell Sciences; Canton, Mass.) followed by HRP-conjugated anti-rabbit antibody (Jackson ImmunoResearch Laboratory; West Grove, Pa.) and ECL (GE Healthcare; Piscataway, N.J.) enhancement.

LnCaP-17 cells = assay: Pro-uPA activation by LnCaP-17 cells (two-stage enzymatic assay); type: cell-based, human
Experimental: (§1) Confluent LnCaP-34 and LnCaP-17 cells were washed with HBSA-Glucose buffer (20 mM Hepes pH 7.5, 150 mM NaCl, 5 mM CaCl2, 0.05 mg/ml BSA, 5 mM glucose) and 0.8 ml of 100 nM pro-uPA in pre-warmed HBSA-Glucose buffer was added to the cell layers. The inhibitors KD1 or HI-10331 were added to give final concentrations of 1 μM and 10 μM, respectively. The culture plates were kept at 37° C. and 50 μl samples were withdrawn at different time points, supplemented with 0.2 ml of […] S2444 in Hepes buffer and the increase in absorbance at 405 nm measured on a kinetic microplate reader. Cell numbers were determined at the end of the experiments. The concentration of formed uPA in each sample was calculated from a standard curve of enzymatically converted pro-uPA and normalized to 10^6 cells. After subtracting the background levels of uPA formed in the absence of cell layer, the linear rates of uPA formation/10^6 cells were determined.

uPA [2] = target: T3, uPA (Homo sapiens, UniProt P00749); assay: Chromogenic activity towards S2444 of samples withdrawn from LnCaP cell layers; type: biochemical; conditions: data not shown
T3 construct: two-chain form consisting of the 20 kDa A-chain and the 30 kDa B-chain (protease domain); purchased American Diagnostica (Greenwich, Conn.)
Experimental: as §1

[3] = test system: LnCaP-34 cells (hepsin-overexpressing); assay: Pro-uPA activation by LnCaP-34 cells (two-stage enzymatic assay); type: cell-based, human
Experimental: as §1

uPA [4] = target: T3, uPA; conditions: reference 21; cited from earlier work
uPA [5] = target: T3, uPA; assay: Enzymatic assay of uPA with chromogenic substrate S2444; type: biochemical; conditions: 10 nM uPA, S2444 at Km; read-out: Ki* (apparent equilibrium dissociation constant) ± SD
Experimental: The reversible active site inhibitor HI-10331 (Genentech, Inc.) (having the molecule structure depicted in FIG. 10, and disclosed in U.S. Pat. No. 6,472,393) or HAI-2 were incubated with 0.5 nM hepsin, 0.5 nM matriptase and 10 nM uPA for 30 min in Hepes buffer (20 mM Hepes, pH 7.5, 150 mM NaCl, 5 mM CaCl2, 0.01% Triton X-100) at room temperature. The chromogenic substrates S2366 (for hepsin), S2765 (for matriptase) and S2444 (for uPA) were added at a concentration corresponding to their respective Km values, which were determined in separate experiments. After substrate addition, the linear rates of the increase in absorbance at 405 nm was measured on a kinetic microplate reader (Molecular Devices, Sunnyvale, Calif.).
The Ki values were calculated according to the relationship Ki=IC50/(1+[S]/Km) (23) using the experimentally determined IC50 and Km values for each enzyme-substrate pair. For HAI-2, the apparent Ki values (Ki^*) were determined by fitting the data to the equation for tight binding inhibition (24,25).

T1 sequence (P00750 36-562): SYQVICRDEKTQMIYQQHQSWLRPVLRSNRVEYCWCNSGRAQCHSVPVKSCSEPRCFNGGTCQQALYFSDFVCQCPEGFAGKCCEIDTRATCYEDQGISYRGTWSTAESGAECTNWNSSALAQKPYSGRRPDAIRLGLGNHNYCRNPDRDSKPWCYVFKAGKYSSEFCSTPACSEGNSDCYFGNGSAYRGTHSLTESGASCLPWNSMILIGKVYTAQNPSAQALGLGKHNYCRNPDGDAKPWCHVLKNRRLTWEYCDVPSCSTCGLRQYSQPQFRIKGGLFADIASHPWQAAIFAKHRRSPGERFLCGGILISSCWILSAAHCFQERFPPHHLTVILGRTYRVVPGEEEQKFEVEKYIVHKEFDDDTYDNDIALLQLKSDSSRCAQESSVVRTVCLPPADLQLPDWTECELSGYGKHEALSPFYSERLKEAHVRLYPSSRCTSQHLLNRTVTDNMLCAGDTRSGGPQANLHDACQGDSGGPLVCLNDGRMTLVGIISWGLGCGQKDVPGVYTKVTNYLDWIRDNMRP

Molecule: Hepsin: soluble His-tagged extracellular domain of human hepsin (Arg45-Leu417), baculovirus expressed
- Cleavage of pro-tPA (pro-tPA): does not cleave
- Added pro-uPA converted during the experiment (pro-uPA): about 70%
- First-order rate constant k ± SD (pro-uPA): 87.1 ± 11.3 10^−3 min^−1
- Efficiency of pro-uPA activation compared to matriptase (pro-uPA): about 6 fold

Molecule: KD1: Kunitz domain-1 inhibitor derived from HAI-1B, produced in E. coli (TEDYCLASNKVGRCRGSFPRWYYDPTEQICKSFVYGGCLGNKNNYLREEECILACRGV)
- Inhibition of pro-uPA cleavage (immunoblot) [1]: strongly inhibited
- Inhibition of pro-uPA cleavage (LnCaP-17 cells; LnCaP-17, 1 μM KD1): almost completely inhibited
- Rate of pro-uPA activation per 10^6 cells ± SD (LnCaP-17 cells; LnCaP-17, 1 μM KD1, 100 nM pro-uPA, 37° C.): 0.2 ± 0.2 nM uPA hr^−1
- Inhibition of chromogenic activity of the withdrawn samples (uPA [2]): not inhibited
- Inhibition of pro-uPA cleavage ([3]; LnCaP-34, 1 μM KD1): almost completely inhibited
- Rate of pro-uPA activation per 10^6 cells ± SD ([3]; LnCaP-34, 1 μM KD1, 100 nM pro-uPA, 37° C.): 0.2 ± 0.1 nM uPA hr^−1
- Inhibition of uPA (uPA [4]): does not inhibit

B1: Plasmin: Lys-plasmin from Heamatologic Technologies Inc., known pro-uPA activator (protein)
chain: KVYLSECKTGNGKNYRGTMSKTKNGITCQKWSSTSPHRPRFSPATHPSEGLEENYCRNPDNDPQGPWCYTTDPEKRYDYCDILECEEECMHCSGENYDGKISKTMSGLECQAWDSQSPHAHGYIPSKFPNKNLKKNYCRNPDRELRPWCFTTDPNKRWELCDIPRCTTPPPSSGPTYQCLKGTGENYRGNVAVTVSGHTCQHWSAQTPHTHNRTPENFPCKNLDENYCRNPDGKRAPWCHTTNSQVRWEYCKIPSCDSSPVSTEQLAPTAPPELTPVVQDCYHGDGQSYRGTSSTTTTGKKCQSWSSMTPHRHQKTPENYPNAGLTMNYCRNPDADKGPWCFTTDPSVRWEYCNLKKCSGTEASVVAPPPVVLLPDVETPSEEDCMFGNGKGYRGKRATTVTGTPCQDWAAQEPHRHSIFTPETNPRAGLEKNYCRNPDGDVGGPWCYTTNPRKLYDYCDVPQCAAPSFDCGKPQVEPKKCPGRVVGGCVAHPHSWPWQVSLRTRFGMHFCGGTLISPEWVLTAAHCLEKSPRPSSYKVILGAHQEVNLEPHVQEIEVSRLFLEPTRKDIALLKLSSPAVITDKVIPACLPSPNYVVADRTECFITGWGETQGTFGAGLLKEAQLPVIENKVCNRYEFLNGRVQSTELCAGHLAGGTDSCQGDSGGPLVCFEKDKYILQGVTSWGLGCARPNKPGVYVRVSRFVTWIEGVMRNN
- Added pro-uPA converted during the experiment (pro-uPA): about 70%
- First-order rate constant k ± SD (pro-uPA): 81.5 ± 14.2 10^−3 min^−1
- Efficiency of pro-uPA activation compared to matriptase (pro-uPA): about 6 fold

B2: HAI-2: recombinantly expressed soluble hepatocyte growth factor activator inhibitor-2, a bi-Kunitz inhibitor (protein)
chain: ADRERSIHDFCLVSKVVGRCRASMPRWWYNVTDGSCQLFVYGGCDGNSNNYLTKEECLKKCATVTENATGDLATSRNAADSSVPSAPRRQDSEDHSSDMFNYEEYCTANAVTGPCRASFPRWYFDVERNSCNNFIYGGCRGNKNSYRSEEACMLRCFRQQENPPLPLGSK
- Ki (uPA [5]): > 1000 nM

B3: Matriptase: matriptase protease domain expressed in E. coli (protein)
chain: VVGGTDADEGEWPWQVSLHALGQGHICGASLISPNWLVSAAHCYIDDRGFRYSDPTQWTAFLGLHDQSQRSAPGVQERRLKRIISHPFFNDFTFDYDIALLELEKPAEYSSMVRPICLPDASHVFPAGKAIWVTGWGHTQYGGTGALILQKGEIRVINQTTCENLLPQQITPRMMCVGFLSGGVDSCQGDSGGPLSSVEADGRIFQAGVVSWGDGCAQRNKPGVYTRLPLFRDWIKENTGV
- First-order rate constant k ± SD (pro-uPA): 14.2 ± 4.9 10^−3 min^−1
